The values below come from patent publication US20200164020A1.

The target in the experiment is IFNβ in spent medium of HEp-2 cells transfected with siPUM1 (UniProt P01574). The experiment in a line: cell-based or functional assay.
UniProt P01574, sequence (P01574 22-187 limits assumed): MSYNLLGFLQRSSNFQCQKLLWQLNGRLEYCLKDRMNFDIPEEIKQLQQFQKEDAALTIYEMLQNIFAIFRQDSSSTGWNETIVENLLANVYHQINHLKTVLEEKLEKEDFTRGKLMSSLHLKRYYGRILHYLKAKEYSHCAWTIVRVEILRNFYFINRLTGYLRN

Turning to “anti-IFNβ antibody (R&D Systems, MAB814-100)”, the accumulation of HSV-1 viral proteins (immunoblot) in HEp-2 cells exposed to siPUM1 spent medium pre-incubated with antibody, IFN neutralization assay was 2 to 4 fold.
